Earlier results in patent US11097005B2, “Use of cadherin-11 antagonists to treat metabolic disorders and/or increase insulin sensitivity” (The Brigham and Women's Hospital, Inc., priority 2014, dated 2021).

Settings: ob/ob mice; IL-33 administration

B1: IL-33: cytokine, ST2 ligand; administration to ob/ob mice cited from literature (protein, UniProt Q8BVZ5 1-266, looked up)
Interleukin-33: MRPRMKYSNSKISPAKFSSTAGEALVPPCKIRRSQQKTKEFCHVYCMRLRSGLTIRKETSYFRKEPTKRYSLKSGTKHEENFSAYPRDSRKRSLLGSIQAFAASVDTLSIQGTSLLTQSPASLSTYNDQSVSFVLENGCYVINVDDSGKDQEQDQVLLRYYESPCPASQSGDGVDGKKLMVNMSPIKDTDIWLHANDKDYSVELQRGDVSPPEQAFFVLHKKSSDFVSFECKNLPGTYIGVKDNQLALVEEKDESCNNIMFKLSKI
accumulation of M2-macrophages in adipose tissue: improve | glucose tolerance: improve
